Data on two molecules can be found in patent US20240344138A1, “TARGETED THERAPIES IN CANCER” (Feng Biosciences, Inc, priority 2021, published 2024).

Test [1] has as its system locally advanced or metastatic gastric cancer. Description: First-line clinical trial of chemotherapy, immune checkpoint inhibitor and navicixizumab, outcome by TME phenotype. The class given is in vivo, human. As for the experimental part: (§1) A clinical trial is run to determine whether locally advanced or metastatic gastric cancer tumor microenvironment phenotypes correlate to clinical responses when patients are treated with chemotherapy, an immune checkpoint inhibitor, and Navicixizumab in the first-line setting. The analysis includes samples from 120 patients across 2 treatment arms (60 patients in each arm). Patients are randomized to receive either (i) chemotherapy and an immune checkpoint inhibitor or (ii) chemotherapy, an immune checkpoint inhibitor and Navicixizumab. RNA gene signatures are analyzed from tumor samples acquired before any treatments and TME phenotypes are determined. Patients are followed for clinical response, progression-free survival, and overall survival.
Gastric cancer patients are randomized to receiving a regimen of chemotherapy (e.g., capecitabine, 5-FU, cisplatin etc.) plus an immune checkpoint inhibitor (anti-PD-(L)1—e.g., an inhibitor to PD-1 or PD-L1) therapy, or a regimen of chemotherapy/immune checkpoint inhibitor/Navicixizumab. […] The correlation between each TME phenotype is tested against clinical outcome data. In immune active (IA), immune suppressed (IS) and angiogenic (A) patients the use of the regimen of chemotherapy/immune checkpoint inhibitor/Navicixizumab confers benefit in comparison to patients classified to the immune desert (ID) TME phenotype class as shown in the TABLE 26.

Test [2] shares this test system. The test can be described thus: First-line clinical trial of chemotherapy, immune checkpoint inhibitor and bavituximab, outcome by TME phenotype. The class given is in vivo, human. As for the experimental part:
as §1, with “inhibitor, and Bavituximab in the” for “inhibitor, and Navicixizumab in the”, “immune checkpoint inhibitor, or (ii)” for “immune checkpoint inhibitor or (ii)”, “immune checkpoint inhibitor, and bavituximab.” for “immune checkpoint inhibitor and Navicixizumab.”, “inhibitor, and bavituximab. RNA gene” for “inhibitor and Navicixizumab. RNA gene”
Gastric cancer patients are randomized to receiving a regimen of chemotherapy (i.e. capecitabine, 5-FU, cisplatin etc.) plus an immune checkpoint inhibitor (anti-PD-(L)1—i.e., an inhibitor to PD-1 or PD-L1) therapy, or a regimen of chemotherapy/immune checkpoint inhibitor/Bavituximab. The combination of chemotherapy/immune checkpoint inhibitor/Bavituximab increases overall response rate (ORR), 6 month progression-free survival (PFS) and overall survival (OS) patients with advanced gastric cancer compared to the regimen of chemotherapy/immune checkpoint inhibitor alone as shown in TABLE 23. […] One hundred and twenty (120) patients are enrolled, 60 in each of the treatment groups with equal representation across the 4 stromal phenotypes (15 in each phenotype per treatment group). The correlation between each TME phenotype is tested against clinical outcome data. In immune active (IA) and immune suppressed (IS) patients the use of the regimen of chemotherapy/immune checkpoint inhibitor/Bavituximab confers benefit in comparison to patients classified to angiogenic (A) and immune desert (ID) TME phenotype classes as shown in the TABLE 24.

B1: Chemo/Immune Checkpoint Inhibitor/Navicixizumab: regimen of chemotherapy, immune checkpoint inhibitor and navicixizumab (antibody, chains of the INN, looked up, V domains shown)
VH: QVQLVQSGAEVKKPGASVKISCKASGYSFTAYYIHWVKQAPGQGLEWIGYISNYNRATNYNQKFKGRVTFTTDTSTSTAYMELRSLRSDDTAVYYCARDYDYDVGMDYWGQGTLVTVSS
VL: DIVMTQSPDSLAVSLGERATISCRASESVDNYGISFMKWFQQKPGQPPKLLIYAASNQGSGVPDRFSGSGSGTDFTLTISSLQAEDVAVYYCQQSKEVPWTFGGGTKVEIK
VH2: QVQLVQSGAEVKKPGASVKVSCKASGYTFTNYWMHWVRQAPGQGLEWMGDINPSNGRTSYKEKFKRRVTLSVDKSSSTAYMELSSLRSEDTAVYFCTIHYDDKYYPLMDYWGQGTLVTVSS
VL2: B1 VL
modifications: with chemotherapy and checkpoint inhibitor
Consider B1, for which the “6 Month PFS (%)” value in test [1] (A (n = 15)) amounted to 66.7%; in test [1] (IA (n = 15)), 73.3%; in test [1] (ID (n = 15)) it was 53.3%; in test [1] (IS (n = 15)), 73.3%; in test [1] (whole treatment group (n = 60)), 67%. In addition, the “ORR (%)” value amounted to 60.0% in test [1] (A (n = 15)); 66.7% in test [1] (IA (n = 15)); 46.7% in test [1] (ID (n = 15)); 73.3% in test [1] (IS (n = 15)); 63% in test [1] (whole treatment group (n = 60)). In addition, the “OS (months)” value in test [1] (A (n = 15)) came out at 15.4 months; in test [1] (IA (n = 15)), 17.4 months; in test [1] (ID (n = 15)), 11.5 months; in test [1] (IS (n = 15)) it was 19.7 months; in test [1] (whole treatment group (n = 60)), 16 months.

B2: Chemo/Immune Checkpoint Inhibitor/Bavituximab: regimen of chemotherapy, immune checkpoint inhibitor and bavituximab (antibody, chains of the INN, looked up, V domains shown)
VH: EVQLQQSGPELEKPGASVKLSCKASGYSFTGYNMNWVKQSHGKSLEWIGHIDPYYGDTSYNQKFRGKATLTVDKSSSTAYMQLKSLTSEDSAVYYCVKGGYYGHWYFDVWGAGTTVTVSS
VL: DIQMTQSPSSLSASLGERVSLTCRASQDIGSSLNWLQQGPDGTIKRLIYATSSLDSGVPKRFSGSRSGSDYSLTISSLESEDFVDYYCLQYVSSPPTFGAGTKLELK
modifications: with chemotherapy and checkpoint inhibitor
Turning to B2, the “6 Month PFS (%)” value in test [2] (A (n = 15)) is reported as 46.7%; in test [2] (IA (n = 15)) it was 80.0%; in test [2] (ID (n = 15)), 60.0%; in test [2] (IS (n = 15)), 73.3%; in test [2] (whole treatment group (n = 60)), 65%. The “ORR (%)” value in test [2] (A (n = 15)) is given as 46.7%; in test [2] (IA (n = 15)), 73.3%; in test [2] (ID (n = 15)), 53.3%; in test [2] (IS (n = 15)), 66.7%; in test [2] (whole treatment group (n = 60)), 60%. Further, the “OS (months)” value turned out to be 8.2 months in test [2] (A (n = 15)); 20.2 months in test [2] (IA (n = 15)); 11.8 months in test [2] (ID (n = 15)); 19.8 months in test [2] (IS (n = 15)); 15 months in test [2] (whole treatment group (n = 60)).
